In patent publication US20210238283A1 (Y BIOLOGICS, published 2021):
Values joined by “and” are separate entries in the source; they are usually repeats but may differ in a detail not shown here. Equal entries are not always repeated.

Legend:
[1] = target: T1, monkey (Rhesus monkey) LAG-3 overexpressed on HEK293E cells (Rhesus monkey, UniProt A0A5F8A874 23-533); assay: flow cytometry, HEK293E cells overexpressing monkey LAG-3
T1 construct: whole, on cells; also called HEK293E-MrhLAG3; MrhLAG3 (Rhesus Monkey)
T1 sequence: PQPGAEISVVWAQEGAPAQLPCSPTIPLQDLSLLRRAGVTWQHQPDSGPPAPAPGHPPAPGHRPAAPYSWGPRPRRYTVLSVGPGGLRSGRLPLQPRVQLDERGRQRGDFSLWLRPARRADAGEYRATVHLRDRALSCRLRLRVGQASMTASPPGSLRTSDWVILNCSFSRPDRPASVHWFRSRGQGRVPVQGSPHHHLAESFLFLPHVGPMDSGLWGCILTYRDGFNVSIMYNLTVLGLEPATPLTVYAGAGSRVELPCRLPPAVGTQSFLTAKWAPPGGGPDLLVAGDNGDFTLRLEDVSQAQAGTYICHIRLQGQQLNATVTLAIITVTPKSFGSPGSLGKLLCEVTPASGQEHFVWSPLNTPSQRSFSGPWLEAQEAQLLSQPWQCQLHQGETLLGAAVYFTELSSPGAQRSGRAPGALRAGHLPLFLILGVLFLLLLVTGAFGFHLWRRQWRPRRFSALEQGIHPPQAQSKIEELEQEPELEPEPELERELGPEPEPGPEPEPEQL
Procedure: (§1) After that, the cells were washed three times with PBS containing 2% FBS and then subjected to the reaction for 30 minutes at 4° C. with anti-human IgG antibody (#FI-3000, Vectorlabs) linked with FITC fluorescent. The cells were washed by the same washing process as above followed by suspension in 0.2 ml PBS containing 2% FBS. The cells were then analyzed by FACSCanto II flow cytometer.

[2] = target: T2, human LAG-3 overexpressed on cells (human, UniProt P18627 23-525); assay: cell-based or functional assay
T2 sequence (looked up): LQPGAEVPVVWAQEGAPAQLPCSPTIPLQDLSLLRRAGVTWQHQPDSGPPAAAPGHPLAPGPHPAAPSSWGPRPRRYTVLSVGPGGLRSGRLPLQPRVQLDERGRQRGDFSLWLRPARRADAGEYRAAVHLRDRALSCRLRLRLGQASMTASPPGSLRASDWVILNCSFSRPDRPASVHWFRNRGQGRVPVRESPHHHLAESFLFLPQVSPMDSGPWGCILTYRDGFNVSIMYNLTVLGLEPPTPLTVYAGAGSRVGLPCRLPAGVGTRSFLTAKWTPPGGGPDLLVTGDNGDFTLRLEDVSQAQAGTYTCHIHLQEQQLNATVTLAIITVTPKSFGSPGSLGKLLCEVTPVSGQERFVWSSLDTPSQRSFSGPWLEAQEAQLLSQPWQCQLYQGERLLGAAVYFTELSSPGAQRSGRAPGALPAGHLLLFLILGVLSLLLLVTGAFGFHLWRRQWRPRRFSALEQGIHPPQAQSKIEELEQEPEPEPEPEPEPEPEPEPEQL

[3] = target: T3, recombinant human LAG-3 extracellular domain fused with mouse Fc (hLAG-3-mFc) (human, UniProt P18627 29-450); assay: flow cytometry, inhibition of LAG-3-mFc binding to Raji cells (MHC class II)
T3 construct: range 29-450; Made in HEK293F cells; also called human LAG-3 antigen; wild-type (WT) LAG-3; not shown: mouse Fc (mFc) at the carboxy terminal
T3 sequence (looked up): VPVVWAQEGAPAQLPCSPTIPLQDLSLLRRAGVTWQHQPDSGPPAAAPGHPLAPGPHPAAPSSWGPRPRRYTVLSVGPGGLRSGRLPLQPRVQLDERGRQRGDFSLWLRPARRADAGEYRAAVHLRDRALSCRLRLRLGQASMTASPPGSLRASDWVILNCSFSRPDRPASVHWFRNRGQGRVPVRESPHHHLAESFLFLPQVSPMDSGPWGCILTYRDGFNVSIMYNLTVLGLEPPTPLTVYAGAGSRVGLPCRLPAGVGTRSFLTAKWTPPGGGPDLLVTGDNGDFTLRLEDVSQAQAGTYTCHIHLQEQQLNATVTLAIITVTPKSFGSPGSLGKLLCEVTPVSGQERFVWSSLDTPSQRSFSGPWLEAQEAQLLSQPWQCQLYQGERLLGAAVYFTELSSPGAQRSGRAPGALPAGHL
Procedure: After that, the antigen-antibody mixture was reacted with the prepared cells for 30 minutes at 4° C. […] After washing them in the same manner as above and suspending them in 0.2 ml PBS containing 2% FBS, analysis was made using CytoFLEX flow cytometer (Beckman coulter, USA)

[4] = target: T2, human LAG-3 overexpressed on cells; assay: flow cytometry, HEK293E cells overexpressing human LAG-3
Procedure: as §1

[5] = target: T2, human LAG-3 overexpressed on cells; assay: cell-based or functional assay; remark: listed apart in the source
[6] = target: T4, recombinant mouse LAG-3 fused with mouse Fc (mLAG-Fc) (mouse, UniProt Q61790 24-442, limits assumed); assay: BLI (Octet QKe), 1:1 global fit
T4 construct: also called mouse LAG-3 antigen; not shown: mouse Fc (mFc) at the carboxy terminal
T4 sequence (looked up): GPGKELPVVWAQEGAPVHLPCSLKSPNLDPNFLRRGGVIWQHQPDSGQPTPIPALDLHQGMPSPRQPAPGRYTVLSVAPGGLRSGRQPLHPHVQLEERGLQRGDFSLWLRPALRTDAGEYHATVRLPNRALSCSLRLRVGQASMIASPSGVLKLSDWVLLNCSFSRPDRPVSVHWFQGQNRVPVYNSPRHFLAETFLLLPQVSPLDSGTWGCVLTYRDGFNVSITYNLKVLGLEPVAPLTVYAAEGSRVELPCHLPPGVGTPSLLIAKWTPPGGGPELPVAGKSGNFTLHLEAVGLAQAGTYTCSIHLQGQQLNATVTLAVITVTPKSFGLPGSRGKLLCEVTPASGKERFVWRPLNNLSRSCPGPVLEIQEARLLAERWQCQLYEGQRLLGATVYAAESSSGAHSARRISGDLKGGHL
Procedure: (§2) After stabilization for 10 minutes in a buffer (#18-1042, Fortebio Inc.), immobilized antigen or antibody was washed out for 5 minutes with the buffer. The antibody or antigen desired for binding was prepared at different concentrations (0.94-60 nM) in a 96-well plate (#655209, Greiner Bio-One, USA) and subjected to the association reaction for 10 minutes followed by dissociation reaction for 10 minutes or 30 minutes.

[7] = target: T3, recombinant human LAG-3 extracellular …; assay: BLI (Octet QKe), 1:1 global fit
Procedure: as §2

[8] = target: T5, recombinant monkey LAG-3 fused with mouse Fc (MrhLAG-3-mFc) (monkey); assay: BLI (Octet QKe), 1:1 global fit
T5 construct: also called monkey LAG-3 antigen
Procedure: as §2

B1: human anti-LAG-3 monoclonal antibody 1E09 (antibody, V domains shown)
VH: QVQLVQSGGDLVKPGGSLRLSCAASGFSFSDHYMNWIRQAPGKGLEWVAYIDTSATYIYYADSVKGRFTISRDNAKNSLYLQMNSLRAEDTAVYYCARDNWGSLDYWGQGALVTVSS
VL: DIQMTQSPSSLSPSVGDRVTITCQASQEISIYLNWYQQKPGKAPKLLIYDASNLETGVPSRFSGSGSGTDFTLTISSLQPEDFATYYCQQTYITPYTFGQGTKLDIK
notes: Tested as full IgG converted from scFv; also called LAG-3-1E09; Parent (1E09)
With B1 the EC50 [1] was 0.246 µg/mL, the “EC50 (µg/ml), LAG3/MHC class II Blockade bioassay” value [2] was 0.0688 µg/mL and 0.186 µg/mL and the IC50 [3] was 25.1 nM. The EC50 [4] was 0.0757 µg/mL, the “EC50 value representing the capacity of recovering the inhibition” value [5] was 0.0578 µg/mL and the “activity against the control antibody (fold)” value [5] was ~2.9 times. It also gave a Kd [6] of 0.596 nM, a Kd [7] of 0.0918 nM and a Kd [8] of 0.328 nM.
